Measurements published in publication PMC10987540, “Biogenesis of Rab14-positive endosome buds at Golgi–endosome contacts by the RhoBTB3–SHIP164–Vps26B complex” (Cell Discovery, 2024).

Biological target: T1, GST-SHIP164-CT (residues 1063–1364) (UniProt A0JNW5 1063-1364)
T1 construct: SHIP164, fragment of the C-terminal region, residues 1063-1364; also called purified SHIP164-CT fragment (residues 1063–1364); source: TSsetta (DE3) cells, purified (GST-tag resin)
Assay: pull-down; GST pull-down: purified GST protein on GST tag resin, His fusion protein added, 12 h at 4 °C, HNM buffer (20 mM HEPES pH 7.4, 100 mM NaCl, 5 mM MgCl2, 1 mM DTT, 0.2% NP-40); blot with anti-GST or His antibodies
Conditions: both partners purified

T1 sequence (A0JNW5 1063-1364): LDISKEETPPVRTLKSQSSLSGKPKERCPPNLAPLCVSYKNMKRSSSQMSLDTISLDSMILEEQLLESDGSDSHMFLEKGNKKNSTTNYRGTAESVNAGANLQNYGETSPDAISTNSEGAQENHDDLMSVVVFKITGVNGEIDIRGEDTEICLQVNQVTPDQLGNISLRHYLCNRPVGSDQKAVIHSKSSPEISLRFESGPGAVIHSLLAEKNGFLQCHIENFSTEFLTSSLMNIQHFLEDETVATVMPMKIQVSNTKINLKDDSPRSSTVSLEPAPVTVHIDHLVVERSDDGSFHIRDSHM

B1: His-Vps26B-NT (residues 1–160) (domain or fragment, UniProt Q4G0F5 1-160, looked up)
chain: MSFFGFGQSVEVEILLNDAESRKRAEHKTEDGKKEKYFLFYDGETVSGKVSLALKNPNKRLEHQGIKIEFIGQIELYYDRGNHHEFVSLVKDLARPGEITQSQAFDFEFTHVEKPYESYTGQNVKLRYFLRATISRRLNDVVKEMDIVVHTLSTYPELNS
notes: Vps26B N-terminal region, residues 1-160; also called His-Vps26B NT region; purified Vps26B-NT fragment; source: TSsetta (DE3) cells, purified (Ni-NTA resin)
Question: Does B1 bind?
Answer: binds
